Measured values reported in article PMC7602980.

Tests used:
[1] = biological target: Cx43CT CT (Rattus norvegicus) (UniProt P08050); settings: cited from earlier work
[2] = biological target: Cx43CT_(236-382) (rat) (UniProt P08050)

Chain of Drebrin (Q16643 2-649): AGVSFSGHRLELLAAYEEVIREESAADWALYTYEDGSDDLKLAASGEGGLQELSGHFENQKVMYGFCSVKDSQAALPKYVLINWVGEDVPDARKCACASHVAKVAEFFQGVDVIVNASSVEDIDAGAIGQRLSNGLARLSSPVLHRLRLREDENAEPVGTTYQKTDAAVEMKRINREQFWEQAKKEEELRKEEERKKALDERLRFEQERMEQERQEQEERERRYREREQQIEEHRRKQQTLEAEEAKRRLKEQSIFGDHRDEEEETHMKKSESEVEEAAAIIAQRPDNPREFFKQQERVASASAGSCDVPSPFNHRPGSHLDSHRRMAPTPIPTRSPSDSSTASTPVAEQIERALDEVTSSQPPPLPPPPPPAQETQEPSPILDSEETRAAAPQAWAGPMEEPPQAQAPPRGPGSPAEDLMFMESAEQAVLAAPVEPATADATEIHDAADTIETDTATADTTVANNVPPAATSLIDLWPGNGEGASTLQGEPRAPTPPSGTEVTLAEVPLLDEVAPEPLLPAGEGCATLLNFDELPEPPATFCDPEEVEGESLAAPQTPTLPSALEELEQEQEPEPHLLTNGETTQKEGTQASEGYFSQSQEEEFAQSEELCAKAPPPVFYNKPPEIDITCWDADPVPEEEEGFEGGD

Row | Substance | Kd [1] | inhibition of ERK2 phosphorylation of GST-Cx43CT (236-382) (in vitro kinase assay, Western blot with Cx43 pS279/S282 antibodies) in presence of CaM (~90% saturation) [2] | inhibition of Src phosphorylation of GST-Cx43CT (236-382) (in vitro kinase assay, Western blot with Cx43 pY265 antibody) in presence of CaM (~90% saturation) [2]
1 | Drebrin (from UniProt Q16643) | 300 µM |  | 
2 | calmodulin (from UniProt P0DP23 1-149) (natural protein) |  | 30% | 90%
